The values that follow come from patent US20170015742A1 (published 2017).

The labels stand for the following.
B1: 4G8.13-GS10-9E8.4 (bispecific antibody, human IgG1, kappa, L234A L235A)
heavy: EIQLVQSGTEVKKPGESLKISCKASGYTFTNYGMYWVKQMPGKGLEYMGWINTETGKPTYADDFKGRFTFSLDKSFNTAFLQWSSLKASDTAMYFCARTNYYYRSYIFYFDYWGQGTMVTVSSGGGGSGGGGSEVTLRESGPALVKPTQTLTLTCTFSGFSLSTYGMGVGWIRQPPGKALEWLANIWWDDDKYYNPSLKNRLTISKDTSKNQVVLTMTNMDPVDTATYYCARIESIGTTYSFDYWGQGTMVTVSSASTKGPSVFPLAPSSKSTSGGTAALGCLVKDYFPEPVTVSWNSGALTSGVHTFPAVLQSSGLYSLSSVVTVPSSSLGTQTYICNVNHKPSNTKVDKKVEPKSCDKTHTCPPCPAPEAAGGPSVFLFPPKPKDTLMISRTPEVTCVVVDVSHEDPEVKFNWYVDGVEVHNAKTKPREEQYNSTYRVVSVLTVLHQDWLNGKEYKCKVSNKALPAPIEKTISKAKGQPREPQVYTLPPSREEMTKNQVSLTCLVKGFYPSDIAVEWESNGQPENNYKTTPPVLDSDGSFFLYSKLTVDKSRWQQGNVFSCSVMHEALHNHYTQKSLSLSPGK
light: ETVLTQSPATLSVSPGERATLSCRASESVSTHMHWYQQKPGQAPRLLIYGASNLESGVPARFSGSGSGTDFTLTISSLQSEDFAVYFCQQSWNDPFTFGQGTRLEIKRGGSGGGGSGEFVLTQSPGTLSLSPGERATLSCERSSGDIGDSYVSWYQQKPGQAPRLVIYADDQRPSGIPDRFSGSGSGTDFTLTISRLEPEDFAVYYCQSYDINIDIVFGGGTKVEIKRTVAAPSVFIFPPSDEQLKSGTASVVCLLNNFYPREAKVQWKVDNALQSGNSQESVTEQDSKDSTYSLSSTLTLSKADYEKHKVYACEVTHQGLSSPVTKSFNRGEC
B2: 4G8.14-GS10-9E8.4 (bispecific antibody, human IgG1, kappa, L234A L235A)
heavy: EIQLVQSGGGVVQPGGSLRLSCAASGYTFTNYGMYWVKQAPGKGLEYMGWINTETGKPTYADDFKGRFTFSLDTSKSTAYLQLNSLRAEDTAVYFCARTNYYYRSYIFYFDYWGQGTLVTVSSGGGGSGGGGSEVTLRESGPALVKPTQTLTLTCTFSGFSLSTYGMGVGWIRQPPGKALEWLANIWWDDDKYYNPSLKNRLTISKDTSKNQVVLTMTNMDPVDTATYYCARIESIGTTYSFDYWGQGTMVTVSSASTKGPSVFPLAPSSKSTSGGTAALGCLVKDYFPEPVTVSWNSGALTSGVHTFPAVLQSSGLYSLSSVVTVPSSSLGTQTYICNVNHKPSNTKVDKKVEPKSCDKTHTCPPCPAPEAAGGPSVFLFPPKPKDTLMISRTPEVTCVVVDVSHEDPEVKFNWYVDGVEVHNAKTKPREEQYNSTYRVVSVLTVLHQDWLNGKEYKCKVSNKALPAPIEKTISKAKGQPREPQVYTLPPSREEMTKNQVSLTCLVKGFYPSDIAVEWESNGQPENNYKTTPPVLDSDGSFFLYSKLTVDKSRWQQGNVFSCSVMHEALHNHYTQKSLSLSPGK
light: B1 light with E1D, A9S, V13A, L21I, R45K, A60S, G66R, S80P, R103K, L104V
B3: 4G8.5_GS_CL-33675 (bispecific antibody, human IgG1, kappa, L234A L235A)
heavy: EIQLVQSGSELKKPGASVKVSCKASGYTFTNYGMYWVRQAPGQGLEYMGWINTETGKPTYADDFKGRFVFSLDTSVSTAYLQISSLKAEDTAVYFCARTNYYYRSYIFYFDYWGQGTMVTVSSGGGGSGGGGSEVTLRESGPALVKPTQTLTLTCTFSGFSLSTYGMGVGWIRQPPGKALEWLANIWWDDDKYYNPSLKNRLTISKDTSKNQVVLTMTNMDPVDTATYYCARIESSGPKYSFDYWGQGTMVTVSSASTKGPSVFPLAPSSKSTSGGTAALGCLVKDYFPEPVTVSWNSGALTSGVHTFPAVLQSSGLYSLSSVVTVPSSSLGTQTYICNVNHKPSNTKVDKKVEPKSCDKTHTCPPCPAPEAAGGPSVFLFPPKPKDTLMISRTPEVTCVVVDVSHEDPEVKFNWYVDGVEVHNAKTKPREEQYNSTYRVVSVLTVLHQDWLNGKEYKCKVSNKALPAPIEKTISKAKGQPREPQVYTLPPSREEMTKNQVSLTCLVKGFYPSDIAVEWESNGQPENNYKTTPPVLDSDGSFFLYSKLTVDKSRWQQGNVFSCSVMHEALHNAYTQKSLSLSPGK
light: ATQLTQSPSLSASVGDRVTITCRASESVSTHMHWYQQKPGKQPKLLIYGASNLESGVPSRFSGSGSGTDFTLTISSLQPEDFATYFCQQSWNDPFTFGQGTKLEIKGGSGGGGSGGEIVLTQSPGTLSLSPGERATLSCRASSGSIWYSFVSWYQQKPGQAPRLLIYADDQRASGIPDRFSGSGSGTDFTLTISRLEPEDFAVYYCQSYGINIDVVFGGGTKVEIKRTVAAPSVFIFPPSDEQLKSGTASVVCLLNNFYPREAKVQWKVDNALQSGNSQESVTEQDSKDSTYSLSSTLTLSKADYEKHKVYACEVTHQGLSSPVTKSFNRGEC
B4: 4G8.5_GS_3E2.1 (bispecific antibody, human IgG1, kappa, L234A L235A)
heavy: EIQLVQSGSELKKPGASVKVSCKASGYTFTNYGMYWVRQAPGQGLEYMGWINTETGKPTYADDFKGRFVFSLDTSVSTAYLQISSLKAEDTAVYFCARTNYYYRSYIFYFDYWGQGTMVTVSSGGGGSGGGGSEVQLVQSGAEVKKPGSSVKVSCKASGYTFTESYMYWVKQAPGQGLELIGRIDPEDGSTDYVEKFKNKATLTADKSTSTAYMELSSLRSEDTAVYFCARFGARSYFYPMDAWGQGTTVTVSSASTKGPSVFPLAPSSKSTSGGTAALGCLVKDYFPEPVTVSWNSGALTSGVHTFPAVLQSSGLYSLSSVVTVPSSSLGTQTYICNVNHKPSNTKVDKKVEPKSCDKTHTCPPCPAPEAAGGPSVFLFPPKPKDTLMISRTPEVTCVVVDVSHEDPEVKFNWYVDGVEVHNAKTKPREEQYNSTYRVVSVLTVLHQDWLNGKEYKCKVSNKALPAPIEKTISKAKGQPREPQVYTLPPSREEMTKNQVSLTCLVKGFYPSDIAVEWESNGQPENNYKTTPPVLDSDGSFFLYSKLTVDKSRWQQGNVFSCSVMHEALHNAYTQKSLSLSPGK
light: ATQLTQSPSLSASVGDRVTITCRASESVSTHMHWYQQKPGKQPKLLIYGASNLESGVPSRFSGSGSGTDFTLTISSLQPEDFATYFCQQSWNDPFTFGQGTKLEIKGGSGGGGSGGETVLTQSPATLSLSPGERATLSCRASESVSTLMHWYQQKPGQQPRLLIYGASNLESGVPARFSGSGSGTDFTLTISSLEPEDFAVYFCQQSWNDPWTFGGGTKVEIKRTVAAPSVFIFPPSDEQLKSGTASVVCLLNNFYPREAKVQWKVDNALQSGNSQESVTEQDSKDSTYSLSSTLTLSKADYEKHKVYACEVTHQGLSSPVTKSFNRGEC

Positions count from the first letter of the chain named.

For the first experiment, the target named is recombinant human VEGF165 (human, UniProt P15692 207-395). Nature of the experiment: cell-based or functional assay.
Chain of recombinant human VEGF165 (P15692 other isoform, or with tags, fused parts or gaps limits assumed): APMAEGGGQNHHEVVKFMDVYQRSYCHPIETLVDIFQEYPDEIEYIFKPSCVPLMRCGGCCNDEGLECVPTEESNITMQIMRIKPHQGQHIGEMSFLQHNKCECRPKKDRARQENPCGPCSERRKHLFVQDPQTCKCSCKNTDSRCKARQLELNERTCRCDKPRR
On to B1, for which the “Potency IC50 (nM) HMVEC-d hVEGF165” value came out at 0.907 nM.
The same measure, in the same setting: next, B2: 0.113 nM; B3: 0.076 nM; B4: 0.072 nM.

For another experiment, the target named is recombinant human PDGF-BB (human, UniProt P01127 82-190). Nature of the experiment: cell-based or functional assay.
Chain of recombinant human PDGF-BB (P01127 82-190 limits assumed): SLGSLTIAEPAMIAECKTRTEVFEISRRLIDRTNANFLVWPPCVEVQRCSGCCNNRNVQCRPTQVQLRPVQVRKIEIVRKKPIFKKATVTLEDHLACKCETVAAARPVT
As to B1, the “Potency IC50 (nM) NIH-3T3 hPDGF-BB” value came out at 0.255 nM.
As for B2, the “Potency IC50 (nM) NIH-3T3 hPDGF-BB” value turned out to be 0.459 nM.
As for B3, the “Potency IC50 (nM) NIH-3T3 hPDGF-BB” value came to 0.05 nM.
Same read-out and setting: as for B4, the figure is 1.4 nM.
